The stoichiometry N is the number of molecules, sites or subunits per partner or assembly. Usually Kd stands for a measure of binding affinity in units of concentration. A low value points to tighter binding.

The text below walks through data of PMC4506582, “Plasmodium falciparum coronin organizes arrays of parallel actin filaments potentially guiding directional motility in invasive malaria parasites” (Malaria Journal, 2015).

Data set [1] deals with the molecule itself. Nature of the data set: SEC; Superdex 200 10/300, 50 mM MES pH 7.0, 100 mM NaCl, 2 mM DTT, 1 mM EDTA; single peak at ~13 mL, ~160 kDa. (In general: In gel filtration, larger molecules generally elute earlier.)
The target in data set [2] is rabbit skeletal muscle actin (filamentous, Mg-ATP-actin polymerised) (rabbit, UniProt P68135 1-377). Nature of the data set: co-sedimentation. The note with it: both partners purified.

B1: His-PfAldolase (Plasmodium falciparum fructose 1,6 bisphosphate aldolase) (enzyme, UniProt Q7KQL9 1-369, looked up)
chain: MAHCTEYMNAPKKLPADVAEELATTAQKLVQAGKGILAADESTQTIKKRFDNIKLENTIENRASYRDLLFGTKGLGKFISGAILFEETLFQKNEAGVPMVNLLHNENIIPGIKVDKGLVNIPCTDEEKSTQGLDGLAERCKEYYKAGARFAKWRTVLVIDTAKGKPTDLSIHETAWGLARYASICQQNRLVPIVEPEILADGPHSIEVCAVVTQKVLSCVFKALQENGVLLEGALLKPNMVTAGYECTAKTTTQDVGFLTVRTLRRTVPPALPGVVFLSGGQSEEEASVNLNSINALGPHPWALTFSYGRALQASVLNTWQGKKENVAKAREVLLQRAEANSLATYGKYKGGAGGENAGASLYEKKYVY
notes: Detected by anti-His Western blot in the sedimentation assay; source: E. coli BL21 (DE3), purified (IMAC, cation exchange, SEC); not shown: His6, N-terminal, kept
On to B1, for which the “stoichiometry N” value in data set [1] was around 4.

B2: PfCoronin 1-388 (N-terminal beta-propeller domain of Plasmodium falciparum coronin) (domain or fragment)
chain: MYNVPLIKNLYPDPSNNLYGDLRICSRATETCGIACSAGYIAVPWQVEGGGMIGVIRLENQVRNPPVIKLKSHTSPILDLSFNPCYSEILASCSEDMSIRIWEIRHEDENVNEVKDPLCILNGHKKKVNILSWNPMNYFILSSTSFDSSVNIWDIENEKKAFEINMPKKLSSLQWDIGGNLLSGTCQNKQIHIIDPRKQEICNSFLIHDGGKSTKCIWIDGFGGEDKCILTTGFSKNNMRELKLWSLKNTTSPLTTITLDNAASPLLPHYDESVGMIYLIGKGDGNCRYYQYSQGSIRKVDEYKSCLPFRSFGFLPKRMCDVYKCEIGRVYKNENNTDIRPISFYVPRKNSSIFQEDLYPPIIMRDPERSTNKWIDGINLDIKRVSIK
Molecule B2 displayed a Kd in data set [2] of 956 nM.
